The results in this text go back to publication PMC8191795 (Nucleic Acids Research, 2020).

Where “and” joins values, the source holds several entries; their conditions need not be identical. Equal entries are not always repeated. Where two headings read alike, the source gives them in different places.

The target of series [1] is his-tagged V. harveyi RNAP alpha subunit (Vibrio harveyi, UniProt A0A0B4IMU9 1-330). The series is described as follows: BLI. Background: In BLI a coated tip is dipped into the sample, and binding shifts an interference pattern.
Series [2] concerns the molecule itself. The series can be described thus: SAXS.
Series [3] deals with the molecule itself. The series is described as follows: SAXS. This is another data set of the same source.
The target in the next series is T1, SmcR N55I (Vibrio vulnificus, UniProt Q9L8G8 1-205, N55I).
T1 sequence: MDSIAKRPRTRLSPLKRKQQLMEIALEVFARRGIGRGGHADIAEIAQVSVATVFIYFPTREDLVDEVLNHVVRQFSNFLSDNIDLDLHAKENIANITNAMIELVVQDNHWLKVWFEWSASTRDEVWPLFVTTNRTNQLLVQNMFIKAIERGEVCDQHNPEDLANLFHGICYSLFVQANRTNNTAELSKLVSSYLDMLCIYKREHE
The series can be described thus: EMSA. (A gel shift assay detects complexes by their altered migration in electrophoresis.)

A further series deals with T2, SmcR WT (Vibrio vulnificus, UniProt Q9L8G8 1-205).
T2 sequence: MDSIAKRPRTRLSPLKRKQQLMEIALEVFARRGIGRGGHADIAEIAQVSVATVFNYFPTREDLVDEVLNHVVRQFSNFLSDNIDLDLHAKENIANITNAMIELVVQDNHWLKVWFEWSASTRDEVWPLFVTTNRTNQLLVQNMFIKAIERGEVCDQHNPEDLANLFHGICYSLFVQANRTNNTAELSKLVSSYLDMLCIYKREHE
The series is described as follows: EMSA.

The next series concerns the target T3, SmcR L139R (Vibrio vulnificus, UniProt Q9L8G8 1-205, L139R).
T3 sequence: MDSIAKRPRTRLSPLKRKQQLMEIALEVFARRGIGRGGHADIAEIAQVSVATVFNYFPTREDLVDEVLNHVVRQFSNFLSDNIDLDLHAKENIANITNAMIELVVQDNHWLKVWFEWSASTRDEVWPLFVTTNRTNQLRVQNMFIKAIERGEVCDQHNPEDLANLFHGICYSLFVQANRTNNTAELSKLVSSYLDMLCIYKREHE
The series is described as follows: EMSA.

The target of the next series is T4, SmcR N142D (Vibrio vulnificus, UniProt Q9L8G8 1-205, N142D).
T4 sequence: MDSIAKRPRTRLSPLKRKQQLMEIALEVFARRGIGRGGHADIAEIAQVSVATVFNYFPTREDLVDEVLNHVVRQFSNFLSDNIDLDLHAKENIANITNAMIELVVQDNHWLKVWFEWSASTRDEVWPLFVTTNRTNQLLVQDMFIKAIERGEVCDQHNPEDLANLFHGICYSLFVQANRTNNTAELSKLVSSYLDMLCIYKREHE
The series is described as follows: EMSA.

In the next series the target is T5, SmcR S76A (Vibrio vulnificus, UniProt Q9L8G8 1-205, S76A).
T5 sequence: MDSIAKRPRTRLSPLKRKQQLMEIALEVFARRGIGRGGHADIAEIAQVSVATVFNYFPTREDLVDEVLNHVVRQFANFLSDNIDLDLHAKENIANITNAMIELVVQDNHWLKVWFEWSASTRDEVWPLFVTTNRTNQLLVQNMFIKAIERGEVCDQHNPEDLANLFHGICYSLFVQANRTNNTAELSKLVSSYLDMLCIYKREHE
The series is described as follows: EMSA.

B1: SmcR wild-type, untagged (Vibrio vulnificus) (natural protein)
chain: MDSIAKRPRTRLSPLKRKQQLMEIALEVFARRGIGRGGHADIAEIAQVSVATVFNYFPTREDLVDEVLNHVVRQFSNFLSDNIDLDLHAKENIANITNAMIELVVQDNHWLKVWFEWSASTRDEVWPLFVTTNRTNQLLVQNMFIKAIERGEVCDQHNPEDLANLFHGICYSLFVQANRTNNTAELSKLVSSYLDMLCIYKREHE
B1 came in with a Kd in series [1] of 142 nM.

B2: SmcR wild-type, 6Xhis-tagged (Vibrio vulnificus) (natural protein)
chain: MDSIAKRPRTRLSPLKRKQQLMEIALEVFARRGIGRGGHADIAEIAQVSVATVFNYFPTREDLVDEVLNHVVRQFSNFLSDNIDLDLHAKENIANITNAMIELVVQDNHWLKVWFEWSASTRDEVWPLFVTTNRTNQLLVQNMFIKAIERGEVCDQHNPEDLANLFHGICYSLFVQANRTNNTAELSKLVSSYLDMLCIYKREHE
For B2, the “stoichiometry N” value in the series “SAXS [2]” is 2 and 4.

B3: SmcR N55I, untagged (Vibrio vulnificus) (natural protein)
chain: MDSIAKRPRTRLSPLKRKQQLMEIALEVFARRGIGRGGHADIAEIAQVSVATVFIYFPTREDLVDEVLNHVVRQFSNFLSDNIDLDLHAKENIANITNAMIELVVQDNHWLKVWFEWSASTRDEVWPLFVTTNRTNQLLVQNMFIKAIERGEVCDQHNPEDLANLFHGICYSLFVQANRTNNTAELSKLVSSYLDMLCIYKREHE
With B3, the Kd in series [1] stood at 160 nM. For the same molecule, the “stoichiometry N” value in the series “SAXS [3]” was 2 and 4.

B4: PvvpE (AB324/AB325) (dsDNA)
DNA 1: ATAAATCAAATTTGTAACTTTATTTCTGAGATGACTGTCCCATTTATCTTATTGATAAATCTGCGTAAAAAAGAAAAAGCACAATTTTATTACTAGTGTTT
DNA 2: AAACACTAGTAATAAAATTGTGCTTTTTCTTTTTTACGCAGATTTATCAATAAGATAAATGGGACAGTCATCTCAGAAATAAAGTTACAAATTTGATTTAT
Take B4: the equilibrium dissociation constant (Kd) with SmcR N55I was found to be 142 nM; with SmcR WT, 2.18 nM; in the series with SmcR L139R, 3.53 nM; with SmcR N142D it was 6.68 nM; with SmcR S76A, 0.363 nM.

B5: PluxC site E T4A (JDN44/JDN45) (dsDNA)
DNA 1: TCTAATTATAGTTTGATTTATTAATAATTAGT
DNA 2: ACTAATTATTAATAAATCAAACTATAATTAGA
As for B5, the Kd with SmcR N55I amounted to 13.4 nM; in the series with SmcR WT, 1.53 nM.

B6: PluxC site E T4A,A17T (JCV1107/JCV1108) (dsDNA)
DNA 1: TCTAATTATTGTTTGATTTATTAATAATTAGT
DNA 2: ACTAATTATTAATAAATCAAACAATAATTAGA
As for B6, the results for the Kd with SmcR N55I and in the series with SmcR WT were 1.91 nM and 2.04 nM, respectively.

B7: PluxC site E A17T (JDN46/JDN47) (dsDNA)
DNA 1: TCTAATTATTGTTTGATTTATTTATAATTAGT
DNA 2: ACTAATTATAAATAAATCAAACAATAATTAGA
Consider B7, for which the Kd with SmcR N55I is 44.6 nM; with SmcR WT, 2.71 nM.

B8: PvvpM (AB316/AB317) (dsDNA)
DNA 1: ACACTTATCTTTAGTGACAAACTCATAAATAGCAAGTTCTCACACGGTC
DNA 2: GACCGTGTGAGAACTTGCTATTTATGAGTTTGTCACTAAAGATAAGTGT
Take B8: the equilibrium dissociation constant (Kd) came out at 0.266 nM with SmcR N55I; 0.143 nM in the series with SmcR WT; 0.322 nM in the series with SmcR L139R; 0.568 nM in the series with SmcR N142D; 0.167 nM with SmcR S76A.

What is called Kd is the equilibrium constant for the complex coming apart. A word on the stoichiometry N: it is a count of units in the complex or per binding partner.
